Measured values published in publication PMC4540666.
[ ]: non-standard residue; d: D form. pY = N[C@@H](Cc1ccc(OP(=O)(O)O)cc1)C(=O)O

Assays:
[1] = molecular target: PLCγ1 SH2C domain (C-terminal SH2 domain of PLCγ1) (rat) (UniProt P10686); test: other fluorescence titration
PLCγ1 SH2C-linker (rat) = PLCγ1 SH2C-linker (rat) (UniProt P10686); test: other fluorescence titration

B1: SLP-76 pY173 peptide (Ac-NSMpY173IDRPPTGK-NH2) (peptide)
peptide: Ac-NSM[pY]IDRPPTGK-NH2
SMILES: CC[C@H](C)[C@H](NC(=O)[C@H](Cc1ccc(OP(=O)(O)O)cc1)NC(=O)[C@H](CCSC)NC(=O)[C@H](CO)NC(=O)[C@H](CC(N)=O)NC(C)=O)C(=O)N[C@@H](CC(=O)O)C(=O)N[C@@H](CCCNC(=N)N)C(=O)N1CCC[C@H]1C(=O)N1CCC[C@H]1C(=O)N[C@H](C(=O)NCC(=O)N[C@@H](CCCCN)C(N)=O)[C@@H](C)O
- Kd [1]: 1600 nM
- Kd (PLCγ1 SH2C-linker (rat)): 2900 nM
